In patent publication US20240294593A1 (Genentech, published 2024):
Read-outs that look alike come from different tables or passages of the source. One block for each binder: values may come before it.

Legend:
human PD-1-His [1] = biological target: T1, human PD-1-His (human, UniProt Q15116 25-167, limits assumed); experiment: Octet (BLI) sensorgram; XENP29708 loaded on the biosensor, analyte Sample ID XENP15593 at 300, 30, 3 nM [Cont.]
T1 construct: Antigen of the Octet assays; not shown: His tag

human PD-1-His [2] = biological target: T1, human PD-1-His; experiment: Octet (BLI); XENP29706 loaded on the biosensor, analyte Sample ID XENP15593 at 300, 30, 3 nM; KD (M) printed in the legend under the plot
human PD-1-His [3] = biological target: T1, human PD-1-His; experiment: Octet
human PD-1-His [4] = biological target: T1, human PD-1-His; experiment: Octet affinity screen; bivalent IgG1 format; reference mAb C[PD-1]_H1L1
human PD-1-His [5] = biological target: T1, human PD-1-His; experiment: Octet (BLI) sensorgram; XENP29712 loaded on the biosensor, analyte Sample ID XENP15593 at 300, 30, 3 nM [Cont.]
human PD-1-His [6] = biological target: T1, human PD-1-His; experiment: Octet (BLI) sensorgram; XENP29711 loaded on the biosensor, analyte Sample ID XENP15593 at 300, 30, 3 nM [Cont.]
human PD-1-His [7] = biological target: T1, human PD-1-His; experiment: Octet (BLI) sensorgram; XENP29714 loaded on the biosensor, analyte Sample ID XENP15593 at 300, 30, 3 nM [Cont.]
human PD-1-His [8] = biological target: T1, human PD-1-His; experiment: Octet (BLI) sensorgram; XENP29713 loaded on the biosensor, analyte Sample ID XENP15593 at 300, 30, 3 nM [Cont.]
human PD-1-His [9] = biological target: T1, human PD-1-His; experiment: Octet (BLI) sensorgram; XENP29710 loaded on the biosensor, analyte Sample ID XENP15593 at 300, 30, 3 nM [Cont.]
cynomolgus PD-1-His [10] = biological target: T2, cynomolgus PD-1-His (cynomolgus monkey); experiment: sensorgram, panel Cyno PD-1; Octet per legend paragraph 199, axes printed as Response (RU) against Time
T2 chain: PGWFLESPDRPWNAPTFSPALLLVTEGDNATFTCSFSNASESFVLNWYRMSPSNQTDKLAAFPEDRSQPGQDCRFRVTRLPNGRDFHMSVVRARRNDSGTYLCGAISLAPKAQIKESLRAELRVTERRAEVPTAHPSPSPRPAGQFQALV

human PD-1-His [11] = biological target: T1, human PD-1-His; experiment: sensorgram, panel Human PD-1; Octet per legend paragraph 199, axes printed as Response (RU) against Time (s)
human PD-1-His [12] = biological target: T1, human PD-1-His; experiment: as above; remark: listed apart in the source
cynomolgus PD-1-His [13] = biological target: T2, cynomolgus PD-1-His; experiment: sensorgram, panel Cyno PD-1; Octet per legend paragraph 199, axes printed as Response (RU) against Time

T1 sequence (Q15116 25-167 limits assumed): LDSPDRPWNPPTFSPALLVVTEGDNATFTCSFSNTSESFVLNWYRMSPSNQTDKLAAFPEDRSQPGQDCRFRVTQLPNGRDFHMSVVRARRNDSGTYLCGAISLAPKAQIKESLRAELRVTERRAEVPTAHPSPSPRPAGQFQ

B2: XENP29706 (W100F) (antibody, V domains shown)
VH: EVQLVESGGGLVQPGGSLRLSCAASGFTFSSFGMHWVRQAPGKGLEWVSYISSGSSIIYYADSVKGRFTISRDNAKNSLYLQMNSLRAEDTAVYYCARGGRLVFSPDYWGQGTLVTVSS
VL: DIVMTQSPDSLAVSLGERATINCKSSQSLLNSGNQKNYLTWYQQKPGQPPKLLIYWASTRESGVPDRFTGSGSGTDFTLTISSLQAEDVAVYYCQNDYSYPFTFGSGTKLEIKR
notes: the panel label gives the substitution; also called mAb C[PD-1]_H1L1 W100F (Kabat) variant; copies: 2 + 2
Kd (human PD-1-His [2]): 309 nM

B3: mab_C[PD-1]_H1_L1.3 (bivalent IgG1) (antibody, V domains shown)
VH: EVQLVESGGGLVQPGGSLRLSCAASGFTFSSFGMHWVRQAPGKGLEWVSYISSGSSIIYYADSVKGRFTISRDNAKNSLYLQMNSLRAEDTAVYYCARGGRLVWSPDYWGQGTLVTVSS
VL: DIVMTQSPDSLAVSLGERATINCKSSQSLLSSGNQKNYLTWYQQKPGQPPKLLIYWASTRESGVPDRFTGSGSGTDFTLTISSLQAEDVAVYYCQNDYSYPFTFGSGTKLEIKR
notes: Bivalent IgG1 format with E233P/L234V/L235A/G236_/S267K; copies: 2 + 2
Kd (human PD-1-His [3]): 10.8 nM
koff (human PD-1-His [3]): 0.00165 s⁻¹
kon (human PD-1-His [3]): 153000 M⁻¹ s⁻¹
fold improved affinity over WT (human PD-1-His [4]): > 2 fold

B9: mAb C[PD-1]_H1_L1.1 (bivalent IgG1) (antibody, V domains shown)
VH: EVQLVESGGGLVQPGGSLRLSCAASGFTFSSFGMHWVRQAPGKGLEWVSYISSGSSIIYYADSVKGRFTISRDNAKNSLYLQMNSLRAEDTAVYYCARGGRLVWSPDYWGQGTLVTVSS
VL: DIVMTQSPDSLAVSLGERATINCKSSQSLLHSGNQKNYLTWYQQKPGQPPKLLIYWASTRESGVPDRFTGSGSGTDFTLTISSLQAEDVAVYYCQNDYSYPFTFGSGTKLEIKR
notes: as for B3
Kd (human PD-1-His [3]): 5.46 nM
koff (human PD-1-His [3]): 0.000532 s⁻¹
kon (human PD-1-His [3]): 97300 M⁻¹ s⁻¹
fold improved affinity over WT (human PD-1-His [4]): > 2 fold

B10: XENP31986 (mAb C H1_L1.1 x IL-15[D30N/E64Q/N65D/N71Q/N79Q/N112Q] w/(G4A) Linker) (Fc fusion)
chain: ITCPPPMSVEHADIWVKSYSLYSRERYICNSGFKRKAGTSSLTECVLNKATNVAHWTTPSLKCIRGGGGAGGGGAGGGGAGGGGAGGGGANWVNVISDLKKIEDLIQSMHIDATLYTESNVHPSCKVTAMKCFLLELQVISLESGDASIHDTVQDLIILAQNSLSSNGQVTESGCKECEELEEKNIKEFLQSFVHIVQMFIQTSEPKSSDKTHTCPPCPAPPVAGPSVFLFPPKPKDTLMISRTPEVTCVVVDVKHEDPEVKFNWYVDGVEVHNAKTKPREEEYNSTYRVVSVLTVLHQDWLNGKEYKCKVSNKALPAPIEKTISKAKGQPREPQVYTLPPSREEMTKNQVSLTCDVSGFYPSDIAVEWESDGQPENNYKTTPPVLDSDGSFFLYSKLTVDKSRWEQGDVFSCSVLHEALHSHYTQKSLSLSPGK
heavy: EVQLVESGGGLVQPGGSLRLSCAASGFTFSSFGMHWVRQAPGKGLEWVSYISSGSSIIYYADSVKGRFTISRDNAKNSLYLQMNSLRAEDTAVYYCARGGRLVWSPDYWGQGTLVTVSSASTKGPSVFPLAPSSKSTSGGTAALGCLVKDYFPEPVTVSWNSGALTSGVHTFPAVLQSSGLYSLSSVVTVPSSSLGTQTYICNVNHKPSNTKVDKKVEPKSCDKTHTCPPCPAPPVAGPSVFLFPPKPKDTLMISRTPEVTCVVVDVKHEDPEVKFNWYVDGVEVHNAKTKPREEQYNSTYRVVSVLTVLHQDWLNGKEYKCKVSNKALPAPIEKTISKAKGQPREPQVYTLPPSREQMTKNQVKLTCLVKGFYPSDIAVEWESNGQPENNYKTTPPVLDSDGSFFLYSKLTVDKSRWQQGNVFSCSVLHEALHSHYTQKSLSLSPGK
light: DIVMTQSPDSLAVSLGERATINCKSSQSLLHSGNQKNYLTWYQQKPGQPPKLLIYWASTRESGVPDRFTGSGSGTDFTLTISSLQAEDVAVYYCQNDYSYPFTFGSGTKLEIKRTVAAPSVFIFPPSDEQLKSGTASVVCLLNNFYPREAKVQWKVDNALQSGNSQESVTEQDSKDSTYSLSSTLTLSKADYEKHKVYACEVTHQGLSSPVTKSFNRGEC
notes: scIL-15/Rα x Fab format
Kd (cynomolgus PD-1-His [10]): 4.5 nM
Kd (human PD-1-His [11]): 4.3 nM

B11: XENP32435 (PD-1-targeted IL-15/Rα-Fc having Trp engineered/affinity repaired mAb C[PD1]_H1.176_L1.140 and IL-15[D30N/E64Q/N65D/N71Q/N79Q/N112Q]) (Fc fusion)
chain: ITCPPPMSVEHADIWVKSYSLYSRERYICNSGFKRKAGTSSLTECVLNKATNVAHWTTPSLKCIRGGGGAGGGGAGGGGAGGGGAGGGGANWVNVISDLKKIEDLIQSMHIDATLYTESNVHPSCKVTAMKCFLLELQVISLESGDASIHDTVQDLIILAQNSLSSNGQVTESGCKECEELEEKNIKEFLQSFVHIVQMFIQTSEPKSSDKTHTCPPCPAPPVAGPSVFLFPPKPKDTLMISRTPEVTCVVVDVKHEDPEVKFNWYVDGVEVHNAKTKPREEEYNSTYRVVSVLTVLHQDWLNGKEYKCKVSNKALPAPIEKTISKAKGQPREPQVYTLPPSREEMTKNQVSLTCDVSGFYPSDIAVEWESDGQPENNYKTTPPVLDSDGSFFLYSKLTVDKSRWEQGDVFSCSVLHEALHSHYTQKSLSLSPGK
heavy: EVQLVESGGGLVQPGGSLRLSCAASGFTFSSLGMHWVRQAPGKGLEWVSYISSGSSIIYYADSVKGRFTISRDNAKNSLYLQMNSLRAEDTAVYYCARGGRLVFSPDYWGQGTLVTVSSASTKGPSVFPLAPSSKSTSGGTAALGCLVKDYFPEPVTVSWNSGALTSGVHTFPAVLQSSGLYSLSSVVTVPSSSLGTQTYICNVNHKPSNTKVDKKVEPKSCDKTHTCPPCPAPPVAGPSVFLFPPKPKDTLMISRTPEVTCVVVDVKHEDPEVKFNWYVDGVEVHNAKTKPREEQYNSTYRVVSVLTVLHQDWLNGKEYKCKVSNKALPAPIEKTISKAKGQPREPQVYTLPPSREQMTKNQVKLTCLVKGFYPSDIAVEWESNGQPENNYKTTPPVLDSDGSFFLYSKLTVDKSRWQQGNVFSCSVLHEALHSHYTQKSLSLSPGK
light: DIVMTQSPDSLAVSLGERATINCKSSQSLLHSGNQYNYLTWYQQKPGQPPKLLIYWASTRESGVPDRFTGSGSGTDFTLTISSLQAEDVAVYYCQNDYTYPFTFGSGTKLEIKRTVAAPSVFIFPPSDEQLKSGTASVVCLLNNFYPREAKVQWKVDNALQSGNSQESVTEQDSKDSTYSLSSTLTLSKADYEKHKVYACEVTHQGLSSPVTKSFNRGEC
Kd (human PD-1-His [12]): 2.8 nM
Kd (cynomolgus PD-1-His [13]): 2.7 nM

Further lines, results first:

binding result (human PD-1-His [1]): no binding (tested: 300 nM)
B1: XENP29708 (W100Y) (antibody, V domains shown)
VH: EVQLVESGGGLVQPGGSLRLSCAASGFTFSSFGMHWVRQAPGKGLEWVSYISSGSSIIYYADSVKGRFTISRDNAKNSLYLQMNSLRAEDTAVYYCARGGRLVYSPDYWGQGTLVTVSS
VL: DIVMTQSPDSLAVSLGERATINCKSSQSLLNSGNQKNYLTWYQQKPGQPPKLLIYWASTRESGVPDRFTGSGSGTDFTLTISSLQAEDVAVYYCQNDYSYPFTFGSGTKLEIKR
notes: the panel label gives the substitution; also called mAb C[PD-1]_H1L1 W100Y (Kabat) variant; copies: 2 + 2

binding result (human PD-1-His [5]): no binding (tested: 300 nM)
B4: XENP29712 (W100S) (antibody, V domains shown)
VH: EVQLVESGGGLVQPGGSLRLSCAASGFTFSSFGMHWVRQAPGKGLEWVSYISSGSSIIYYADSVKGRFTISRDNAKNSLYLQMNSLRAEDTAVYYCARGGRLVSSPDYWGQGTLVTVSS
VL: DIVMTQSPDSLAVSLGERATINCKSSQSLLNSGNQKNYLTWYQQKPGQPPKLLIYWASTRESGVPDRFTGSGSGTDFTLTISSLQAEDVAVYYCQNDYSYPFTFGSGTKLEIKR
notes: the panel label gives the substitution; also called mAb C[PD-1]_H1L1 W100S (Kabat) variant; copies: 2 + 2

binding result (human PD-1-His [6]): no binding (tested: 300 nM)
B5: XENP29711 (W100Q) (antibody, V domains shown)
VH: EVQLVESGGGLVQPGGSLRLSCAASGFTFSSFGMHWVRQAPGKGLEWVSYISSGSSIIYYADSVKGRFTISRDNAKNSLYLQMNSLRAEDTAVYYCARGGRLVQSPDYWGQGTLVTVSS
VL: DIVMTQSPDSLAVSLGERATINCKSSQSLLNSGNQKNYLTWYQQKPGQPPKLLIYWASTRESGVPDRFTGSGSGTDFTLTISSLQAEDVAVYYCQNDYSYPFTFGSGTKLEIKR
notes: the panel label gives the substitution; also called mAb C[PD-1]_H1L1 W100Q (Kabat) variant; copies: 2 + 2

binding result (human PD-1-His [7]): no binding (tested: 300 nM)
B6: XENP29714 (W100R) (antibody, V domains shown)
VH: EVQLVESGGGLVQPGGSLRLSCAASGFTFSSFGMHWVRQAPGKGLEWVSYISSGSSIIYYADSVKGRFTISRDNAKNSLYLQMNSLRAEDTAVYYCARGGRLVRSPDYWGQGTLVTVSS
VL: DIVMTQSPDSLAVSLGERATINCKSSQSLLNSGNQKNYLTWYQQKPGQPPKLLIYWASTRESGVPDRFTGSGSGTDFTLTISSLQAEDVAVYYCQNDYSYPFTFGSGTKLEIKR
notes: the panel label gives the substitution; also called mAb C[PD-1]_H1L1 W100R (Kabat) variant; copies: 2 + 2

binding result (human PD-1-His [8]): no binding (tested: 300 nM)
B7: XENP29713 (W100E) (antibody, V domains shown)
VH: EVQLVESGGGLVQPGGSLRLSCAASGFTFSSFGMHWVRQAPGKGLEWVSYISSGSSIIYYADSVKGRFTISRDNAKNSLYLQMNSLRAEDTAVYYCARGGRLVESPDYWGQGTLVTVSS
VL: DIVMTQSPDSLAVSLGERATINCKSSQSLLNSGNQKNYLTWYQQKPGQPPKLLIYWASTRESGVPDRFTGSGSGTDFTLTISSLQAEDVAVYYCQNDYSYPFTFGSGTKLEIKR
notes: the panel label gives the substitution; also called mAb C[PD-1]_H1L1 W100E (Kabat) variant; copies: 2 + 2

binding result (human PD-1-His [9]): no binding (tested: 300 nM)
B8: XENP29710 (W100H) (antibody, V domains shown)
VH: EVQLVESGGGLVQPGGSLRLSCAASGFTFSSFGMHWVRQAPGKGLEWVSYISSGSSIIYYADSVKGRFTISRDNAKNSLYLQMNSLRAEDTAVYYCARGGRLVHSPDYWGQGTLVTVSS
VL: DIVMTQSPDSLAVSLGERATINCKSSQSLLNSGNQKNYLTWYQQKPGQPPKLLIYWASTRESGVPDRFTGSGSGTDFTLTISSLQAEDVAVYYCQNDYSYPFTFGSGTKLEIKR
notes: the panel label gives the substitution; also called mAb C[PD-1]_H1L1 W100H (Kabat) variant; copies: 2 + 2
